Literature values as cited in paper PMC10530501.

What was measured:
C1q (Homo sapiens) = C1q (Homo sapiens) (UniProt P02745)
TLR4 (Homo sapiens) = TLR4 (Homo sapiens) (UniProt O00206); assay: SPR
UniProt O00206, sequence (O00206 24-631): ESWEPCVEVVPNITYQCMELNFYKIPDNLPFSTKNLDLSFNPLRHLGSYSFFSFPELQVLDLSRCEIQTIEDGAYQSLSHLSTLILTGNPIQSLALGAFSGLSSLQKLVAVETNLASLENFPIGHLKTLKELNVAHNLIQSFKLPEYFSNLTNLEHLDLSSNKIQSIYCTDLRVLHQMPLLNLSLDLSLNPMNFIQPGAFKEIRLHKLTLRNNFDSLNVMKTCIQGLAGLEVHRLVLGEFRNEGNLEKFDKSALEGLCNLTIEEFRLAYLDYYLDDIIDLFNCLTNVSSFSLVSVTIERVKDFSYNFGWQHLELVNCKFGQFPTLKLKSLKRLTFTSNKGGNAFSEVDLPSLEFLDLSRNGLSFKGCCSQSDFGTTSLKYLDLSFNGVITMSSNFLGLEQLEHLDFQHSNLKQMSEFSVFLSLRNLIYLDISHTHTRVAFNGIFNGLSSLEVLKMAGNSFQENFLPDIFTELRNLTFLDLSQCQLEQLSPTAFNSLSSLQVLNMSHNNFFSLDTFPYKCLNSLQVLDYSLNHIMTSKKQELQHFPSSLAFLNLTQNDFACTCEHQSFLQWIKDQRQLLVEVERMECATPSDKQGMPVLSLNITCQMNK

UniProt P02745, sequence (P02745 23-245, chain 1 of 3): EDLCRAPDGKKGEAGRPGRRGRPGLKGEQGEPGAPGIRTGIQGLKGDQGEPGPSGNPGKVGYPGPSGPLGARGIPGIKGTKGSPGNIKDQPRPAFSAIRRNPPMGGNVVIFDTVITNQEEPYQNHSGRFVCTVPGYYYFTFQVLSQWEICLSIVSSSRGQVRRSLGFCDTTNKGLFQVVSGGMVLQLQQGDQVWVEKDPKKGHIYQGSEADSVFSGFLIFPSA
UniProt P02745, sequence (P02746 28-253, chain 2 of 3, further chain): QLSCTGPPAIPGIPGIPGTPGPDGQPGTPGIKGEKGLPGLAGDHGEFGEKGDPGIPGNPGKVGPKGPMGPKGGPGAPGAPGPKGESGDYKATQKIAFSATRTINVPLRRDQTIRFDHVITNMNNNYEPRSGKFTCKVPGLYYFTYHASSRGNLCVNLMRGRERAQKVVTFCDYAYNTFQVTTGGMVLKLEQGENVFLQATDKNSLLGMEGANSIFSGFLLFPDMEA
UniProt P02745, sequence (P02747 29-245, chain 3 of 3, further chain): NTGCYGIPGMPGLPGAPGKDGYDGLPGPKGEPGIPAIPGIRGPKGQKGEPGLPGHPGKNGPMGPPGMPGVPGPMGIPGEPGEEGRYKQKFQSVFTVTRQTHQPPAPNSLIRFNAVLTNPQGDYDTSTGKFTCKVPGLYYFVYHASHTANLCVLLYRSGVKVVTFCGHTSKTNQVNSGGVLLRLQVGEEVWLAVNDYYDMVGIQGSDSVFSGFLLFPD

| Kd (C1q (Homo sapiens)) | Kd (TLR4 (Homo sapiens)) | Substance |
| --- | --- | --- |
| 200 nM | – | HMGB1 (from UniProt P09429) |
| – | 20.2 nM | pCTS-L (from UniProt P07711) |
